Data as given in the RNAGym collection of RNA variant scans (doi:10.1073/pnas.2313332121).
This sample holds only a part of the variants without activity.

B1: TPR 5TU (parent)
chain: GGAUCUUCUCGAUCUAACAAAAAAGACAAAUCUGCCACAAAGCUUGAGAGCAUCUUCGGAUGCAGAGGCGGCAGCCUUCGGUGGCGCGAUAGCGCCAACGUUCUCAACUAUGACACGCAAAACGCGUGCUCCGUUGAAUGGAGUUUAUCAUG

Variants of: B1
Assay: polymerase ribozyme fitness, log enrichment relative to wild type (log ratio); higher = more active; in vitro selection for triplet polymerase activity
Procedure, shortened: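 Only genotypes with ≥10 input reads and ≥1 read per output were kept after Illumina sequencing of input and output libraries. These libraries were PCR-built, transcribed mutants of each subunit of a heterodimeric triplet polymerase ribozyme, each put through one triplicate in vitro selection round with frozen incubation at −7 °C, gel excision of extended constructs, streptavidin-bead capture and RT-PCR. Fitness is a logarithmic ratio of genotype enrichment to wild-type enrichment, from inverse-variance-weighted replicate averages, with the logarithm in base 2.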

Variant | polymerase ribozyme fitness (log ratio)
G34U C76U A119U | -3.19
U33A A47C C99A | ≤ -4.2
G34U G67A C76U C85A | ≤ -4.2
C35A U90A C95U U102A | ≤ -4.2
C35A A52C C79G C96U U127C C149A | ≤ -4.2
U33G G83A G88U G136C | ≤ -4.2
C32U U33G C38U C54U U77A A107U | -3.74
C35A G83U | ≤ -4.2
C35A G83C | -3.93
C35A C95G C105G A106G G141A | ≤ -4.2
C35A C93G A98C C99U G141C | ≤ -4.2
U33C C69U | -0.0558
C35A A39C A91U A121U | ≤ -4.2
U33A C95U A142U G143U | -4.13
C35A C76U G81A C96U C103A | ≤ -4.2
C32U C51A A52U C96G G136U | ≤ -4.2
G34A G50C G92U | ≤ -4.2
C32U U61G | -3.73
C32U U61C | -3.52
G34U A41G A47C C116U | ≤ -4.2
C35A G42U G48A G68A A106C C116U A120U G141A | ≤ -4.2

Variant | polymerase ribozyme fitness (log ratio)
U33G A40G C54U U55G A98G A147U A150C | ≤ -4.2
G34U A47U | -2.01
C35A G74A U144G C149G | ≤ -4.2
C32G G83A C85G C108G G124A U135G | ≤ -4.2
U33A G46A G59A C103A A115G | -4.12
U33A A40C A41U C93G | -3.86
U33G A60G C85A A97U A142C | ≤ -4.2
G34A U102G | ≤ -4.2
U33A U53A U148C | ≤ -4.2
G34U G58C C69U A91G G128A U135C | ≤ -4.2
C32U C38U C93G A122G G126C U145A | ≤ -4.2
C35A A49C U56C G71A C72U G92A A115C | -3.21
U33G G58U A91C G143U | -3.87
C32U A49C U55A G81A C85U U90A A106U A121U C125A | ≤ -4.2
G34A C87U A89U G100A C103G A107U G124C U135G G140A G141C | ≤ -4.2
C35A A47C G86U | ≤ -4.2
U33A G46U C75A G140C | ≤ -4.2
C32G U45C | -4.16
C35A A37G U56A U61A | -3.7
C32G G94A | -3.8
C32G G94C | -4.18

Variant | polymerase ribozyme fitness (log ratio)
U33C G81U C93G G143U | -4.06
C32U A89U | -2.63
U33G U56C G81C C95U | -3.74
U33G C116U | -2.7
U33A U44A G46U G59A C93G C103U U104A U135A C149G | ≤ -4.2
C35A C43U C87A G128A | ≤ -4.2
U33A U56A C75G G81U G83A U127A | ≤ -4.2
G34U A142C | -3.85
U33A G58A C96A G152U | -3.79
U33C A41U C57U G70C G83A A119C | ≤ -4.2
U33C A39C G88A C118G C123A | ≤ -4.2
U33C A97G | -2.92
C32G G65C A73G C76U A106G | ≤ -4.2
U33C A40C G68U C95A U102C C132G | -3.48
U33A C75A A110U | ≤ -4.2
C32U U53A G84U A120G G128U A142U | ≤ -4.2
C32U C43U G92A U146G | ≤ -4.2
C32U C54G G68U C75A | -3.88
C32U C36A U55A U77G A91U G140U | -3.95
U33C A52G G70A G92A A150G | -3.87
C35A G58U | -2.81

Variant | polymerase ribozyme fitness (log ratio)
U33G G50A C93G G128A | ≤ -4.2
U33C A49C C57U U145A U151A | ≤ -4.2
G34A A106U A142U | ≤ -4.2
C35A U61A C103G U104C C116U | ≤ -4.2
U33G G46C C95U C99A A107G G133U | ≤ -4.2
C32U G65C U77A C87G U90C C114A U151A | ≤ -4.2
G34A A49C C95U G140U G141A | ≤ -4.2
C35A A52C U77C A147C | ≤ -4.2
C32G U55G C79U C96G | -4.01
U33G A52C G92C U139C | ≤ -4.2
U33C A60U A73U A122G | -2.54
U33G C85G G117C | ≤ -4.2
G34U G94A | -2.37
G34A U56A G92C | -1.65
U33A C95U | -4.12
U33G G46A A49C U77C A98U C99U G152U | ≤ -4.2
C32U C36U G68A G83U | ≤ -4.2
U33G A60G | -2.79
G34A U111C A113C G124U G152U | ≤ -4.2
C32U C75U G88A A115C | ≤ -4.2
G34U A40G C69U G80U C99U A107G U139G G140U U148C | ≤ -4.2
